{"source": "patent US20220088115A1", "about": "“PHARMACEUTICAL COMPOSITION, COMPRISING INHIBITORY PEPTIDE AGAINST FAS SIGNALING, FOR PREVENTION OR TREATMENT OF OBESITY, FATTY LIVER, OR STEATOHEPATITIS” (SIGNET BIOTECH INC., priority 2018, published 2022)", "molecules": {"B1": {"name": "Fas Blocking Peptide (FBP or FBP-8) (peptide)", "peptide": "YCDEHFCY", "modifications": "cysteine pairing not given here; also: Alexa647 or Alexa 488 label, attachment site not given here"}, "B2": {"name": "Control Peptide (CTRP) (peptide)", "peptide": "YCNSTVCY", "modifications": "cysteine pairing not given here; also: Alexa647 label, attachment site not given here"}}, "key": {"[1]": {"assay": "Stability of peptides in sera", "type": "in vitro ADME", "conditions": "compared among cyclic FBP-8, linear FBP-8 and FBP-7"}, "obese person": {"test_system": "obese person", "conditions": "in vivo; cited from earlier work"}, "Fas": {"molecular_target": "T1, Fas (Homo sapiens, UniProt P25445)", "T1 construct": "A Jurkat cell line, in which Fas is always expressed; host or cells: Jurkat", "T1 sequence (P25445 26-335)": "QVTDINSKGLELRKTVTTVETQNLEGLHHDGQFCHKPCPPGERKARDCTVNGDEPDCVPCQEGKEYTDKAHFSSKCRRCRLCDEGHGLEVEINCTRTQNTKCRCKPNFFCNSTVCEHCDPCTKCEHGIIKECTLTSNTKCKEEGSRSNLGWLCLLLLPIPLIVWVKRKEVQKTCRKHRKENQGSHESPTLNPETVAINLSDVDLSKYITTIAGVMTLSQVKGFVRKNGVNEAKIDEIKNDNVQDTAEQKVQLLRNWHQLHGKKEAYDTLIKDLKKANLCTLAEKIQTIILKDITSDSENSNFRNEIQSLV", "assay": "Binding of Alexa647-labeled peptides to Fas-expressing Jurkat cell line", "conditions": "Jurkat cell line always expressing Fas; Alexa647-labeled peptide", "description": "A Jurkat cell line which is a human blood cancer cell line and a 3T3L1 cell line which is a murine adipocyte were purchased from ATCC (USA), and the Jurkat cell line was cultured in an RPMI culture medium containing 10% fetal bovine serum (FBS), 1% penicillin, 1% streptomycin, and 25 mM glucose.\nA Jurkat cell line, in which Fas is always expressed, was treated with an FITC-labeled Fas antibody and treated with Alexa647-labeled FBP-8, FBP-A, FBP-7 or control peptide (YCNSTVCY; CtrFBP)."}, "3T3L1 cell line": {"test_system": "3T3L1 cell line", "assay": "Apoptosis level in 3T3L1 cell line treated with FasL and peptide (annexin V flow cytometry)", "type": "cell-based, murine", "conditions": "differentiated 3T3L1 treated with Fas ligand and peptide", "description": "The 3T3L1 cell line was cultured in a DMEM culture medium containing 10% FBS, 1% penicillin, 1% streptomycin, and 25 mM glucose. The 3T3L1 cell line was aliquoted into the above DMEM culture solution at a concentration of 2×10^5 cells/ml to induce adipocyte maturation for 3 days, and then replaced with a culture solution containing insulin to induce adipocyte maturation again for 3 days. Thereafter, the 3T3L1 cell line was further cultured in the above DMEM culture solution for 2 days to achieve complete maturation of adipocytes.\nThe 3T3L1 cell line was treated with a Fas ligand (FasL) at a concentration of 500 ng/ml to induce apoptosis, and FBP signal blocking peptides (FBP-8. FBP-A and FBP-7) and CtrFBP bound to Alexa647 were treated, respectively. After 4 hours of peptide treatment, cells were washed with DPBS and treated with FITC-bound annexin V (BD Pharmingen) to analyze the apoptosis inhibitory effect by a flow cytometer."}, "obesity model mice": {"test_system": "obesity model mice", "assay": "TUNEL staining of dead cells, obesity model mice, intravenous FBP-8", "type": "in vivo, C57BL/6 mice", "conditions": "intravenous twice a week for 5 weeks", "description": "All animal experiments performed for the present invention were approved by the Institutional Animal Care and Use Committee of Hanyang University. […] Thereafter, depending on the experimental group, 60 μg/one time of FBP8 were administered by intravenous injection twice a week for a total of 5 weeks (FIG. 13), or FBP7 was administered by subcutaneous injection twice a day.\nFurthermore, a terminal deoxynucleotidyl transferase dUTP nick end labeling (TUNEL) analysis for each tissue was performed with an in situ cell death detection kit (Millipore, USA). Thereafter, the fluorescence signals were analyzed under a TCS-SP5 confocal microscope by staining the nuclei with Hoechst 33342, and the fluorescence signals of each cell were analyzed with the Image J program.\nObesity model mice were produced by feeding normal mice a high fat diet for 8 weeks, and FBP-8 was administered by intravenous injection twice a week for a total of 5 weeks (FIG. 13). After five weeks, the obesity model mice were sacrificed to isolate white adipose tissues and liver tissues and analyze the proportion of dead cells by TUNEL staining."}, "[2]": {"molecular_target": "T2, Fas on Jurkat cell line (human blood cancer cell line in which Fas is always expressed) (human, UniProt P25445 26-335)", "T2 sequence (looked up)": "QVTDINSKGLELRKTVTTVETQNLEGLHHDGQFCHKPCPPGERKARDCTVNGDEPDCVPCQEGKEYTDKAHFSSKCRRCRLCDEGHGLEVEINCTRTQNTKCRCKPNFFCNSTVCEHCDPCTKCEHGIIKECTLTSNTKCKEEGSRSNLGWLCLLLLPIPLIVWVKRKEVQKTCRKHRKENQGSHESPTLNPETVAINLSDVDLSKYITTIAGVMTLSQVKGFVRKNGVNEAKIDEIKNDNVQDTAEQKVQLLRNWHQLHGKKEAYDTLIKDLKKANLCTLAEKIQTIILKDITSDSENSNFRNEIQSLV", "assay": "cell-based or functional assay"}}, "note": "Where a SMILES comes first, the peptide text is derived from it. Where no end group is shown, it is not given here."}
{"molecule": "N[C@@H](Cc1ccc(O)cc1)C(=O)N[C@@H](CS)C(=O)N[C@@H](CC(=O)O)C(=O)N[C@@H](CCC(=O)O)C(=O)N[C@@H](Cc1c[nH]cn1)C(=O)N[C@@H](Cc1ccccc1)C(=O)N[C@@H](Cc1ccc(O)cc1)C(=O)O", "note": "[FBP-7, YCDEHFY] (H-YCDEHFY-OH; N-terminus and C-terminus assumed)", "values": [{"measurement": "serum stability", "setting": "[1]", "result": "the best"}]}
{"molecule": "CCCCCCCCCCCCCCCC(=O)N[C@@H](CCC(=O)NCCCC[C@H](NC(=O)[C@H](C)NC(=O)[C@H](C)NC(=O)[C@H](CCC(N)=O)NC(=O)CNC(=O)[C@H](CCC(=O)O)NC(=O)[C@H](CC(C)C)NC(=O)[C@H](Cc1ccc(O)cc1)NC(=O)[C@H](CO)NC(=O)[C@H](CO)NC(=O)[C@@H](NC(=O)[C@H](CC(=O)O)NC(=O)[C@H](CO)NC(=O)[C@@H](NC(=O)[C@H](Cc1ccccc1)NC(=O)[C@@H](NC(=O)CNC(=O)[C@H](CCC(=O)O)NC(=O)[C@H](C)NC(=O)[C@@H](N)Cc1cnc[nH]1)[C@@H](C)O)[C@@H](C)O)C(C)C)C(=O)N[C@@H](CCC(=O)O)C(=O)N[C@@H](Cc1ccccc1)C(=O)N[C@H](C(=O)N[C@@H](C)C(=O)N[C@@H](Cc1c[nH]c2ccccc12)C(=O)N[C@@H](CC(C)C)C(=O)N[C@H](C(=O)N[C@@H](CCCNC(=N)N)C(=O)NCC(=O)N[C@@H](CCCNC(=N)N)C(=O)NCC(=O)O)C(C)C)[C@@H](C)CC)C(=O)O", "note": "[liraglutide]", "values": [{"measurement": "side effects", "setting": "obese person", "result": "nausea, vomiting, diarrhea, and constipation"}]}
{"molecule": "YCDEHFAY (Fas binding peptide-A (FBP-A))", "values": [{"measurement": "binding to Jurkat cells (Alexa647 signal)", "setting": "Fas", "result": "bound to Jurkat cells at similar levels"}]}
{"molecule": "YCNSTVCY (control peptide) [CtrFBP, control peptide used as negative control, reference compound]", "values": [{"measurement": "apoptosis level", "setting": "3T3L1 cell line", "result": "23±5.12", "unit": "%"}, {"measurement": "proportion of dead cells in liver tissue (TUNEL)", "setting": "obesity model mice", "result": "17+7.98%"}, {"measurement": "proportion of dead cells in white adipose tissue (TUNEL)", "setting": "obesity model mice", "result": "51±2.98", "unit": "%"}, {"measurement": "binding to Jurkat cells (Alexa647 signal)", "setting": "Fas", "result": "hardly bound to Jurkat cells"}]}
{"molecule": "B1", "values": [{"measurement": "apoptosis level of Jurkat cells treated with Fas ligand (FasL) and peptide", "setting": "[2]", "result": 17, "unit": "%"}]}
{"molecule": "YCDEHFAY (also: Alexa647 label, attachment site not given here)", "note": "[Fas Blocking Peptide A (FBPA)]", "values": [{"measurement": "apoptosis level of Jurkat cells treated with Fas ligand (FasL) and peptide", "setting": "[2]", "result": 15, "unit": "%"}]}
{"molecule": "YCDEHFY (also: Alexa647 label, attachment site not given here)", "note": "[Fas Blocking Peptide 7 (FBP7)]", "values": [{"measurement": "apoptosis level of Jurkat cells treated with Fas ligand (FasL) and peptide", "setting": "[2]", "result": 14, "unit": "%"}]}
{"molecule": "B2", "values": [{"measurement": "apoptosis level of Jurkat cells treated with Fas ligand (FasL) and peptide", "setting": "[2]", "result": 31, "unit": "%"}]}
